Results on one molecule are retold here after publication PMC8420576 (The EMBO Journal, 2021).

For this assay, the target named is T1, SARS-CoV-2 Spike RBD (residues 334–527), C-terminal Avi-His6 tag, biotinylated (SARS-CoV-2, reference (Wuhan-Hu-1) …, UniProt P0DTC2, biotin on the Avi-tag).
T1 construct: also called biotinylated RBD; SARS‐CoV‐2 RBD‐loaded sensors
Briefly: BLI. As to conditions: both partners purified.

B1: VHH antibody Re9F06 (VHH)
VHH: QVQLVESGGGLVQAGGSLRLSCAASGRTFSNDALGWFRQAPRKEREFVAAINWNSGTYYADSVKGRFTISRDNAKNTVYLQMNSLKPEDTAVYSCAAASDYGLPREDFLYDYWGQGTQVTVSS
notes: also called fold-promoter Re9F06; fold-promoting nanobody Re9F06
B1: the Kd was found to be 4 nM.

What is called Kd is the constant that tells how readily two partners part at equilibrium. A high value points to a looser complex.
